Among the data in publication doi:10.1101/2021.03.12.434960 are landing rate values, retold here.

Sequence of K420A (human KIF5A aa 1-416, C-terminal mScarlet-StrepII) (Q12840 1-416, stated change not applied): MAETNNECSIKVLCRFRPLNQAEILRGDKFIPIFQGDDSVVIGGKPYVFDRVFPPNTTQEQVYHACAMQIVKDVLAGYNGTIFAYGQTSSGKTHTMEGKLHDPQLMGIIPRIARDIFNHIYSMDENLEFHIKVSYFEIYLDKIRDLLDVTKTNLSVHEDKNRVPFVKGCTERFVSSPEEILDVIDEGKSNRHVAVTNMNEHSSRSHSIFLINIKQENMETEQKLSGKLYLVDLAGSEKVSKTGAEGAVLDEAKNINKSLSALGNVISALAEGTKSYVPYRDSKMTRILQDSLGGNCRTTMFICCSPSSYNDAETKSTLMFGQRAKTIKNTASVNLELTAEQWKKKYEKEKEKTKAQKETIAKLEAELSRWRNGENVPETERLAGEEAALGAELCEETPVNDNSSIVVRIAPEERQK
Sequence of K420C (human KIF5C aa 1-416, C-terminal mScarlet-StrepII) (O60282 1-416, stated change not applied): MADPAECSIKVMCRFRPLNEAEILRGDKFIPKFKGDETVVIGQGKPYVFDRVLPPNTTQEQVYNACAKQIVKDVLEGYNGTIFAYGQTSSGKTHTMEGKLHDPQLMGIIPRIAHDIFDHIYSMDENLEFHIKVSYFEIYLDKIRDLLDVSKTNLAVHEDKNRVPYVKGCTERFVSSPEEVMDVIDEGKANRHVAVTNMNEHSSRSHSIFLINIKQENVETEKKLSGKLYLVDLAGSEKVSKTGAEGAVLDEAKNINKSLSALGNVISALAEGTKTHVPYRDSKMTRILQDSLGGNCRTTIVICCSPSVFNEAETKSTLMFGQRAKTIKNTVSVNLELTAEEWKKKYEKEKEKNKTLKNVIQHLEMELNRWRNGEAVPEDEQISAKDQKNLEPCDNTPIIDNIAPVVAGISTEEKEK
Sequence of full-length human KIF5C, C-terminal mScarlet-StrepII (O60282 whole entry): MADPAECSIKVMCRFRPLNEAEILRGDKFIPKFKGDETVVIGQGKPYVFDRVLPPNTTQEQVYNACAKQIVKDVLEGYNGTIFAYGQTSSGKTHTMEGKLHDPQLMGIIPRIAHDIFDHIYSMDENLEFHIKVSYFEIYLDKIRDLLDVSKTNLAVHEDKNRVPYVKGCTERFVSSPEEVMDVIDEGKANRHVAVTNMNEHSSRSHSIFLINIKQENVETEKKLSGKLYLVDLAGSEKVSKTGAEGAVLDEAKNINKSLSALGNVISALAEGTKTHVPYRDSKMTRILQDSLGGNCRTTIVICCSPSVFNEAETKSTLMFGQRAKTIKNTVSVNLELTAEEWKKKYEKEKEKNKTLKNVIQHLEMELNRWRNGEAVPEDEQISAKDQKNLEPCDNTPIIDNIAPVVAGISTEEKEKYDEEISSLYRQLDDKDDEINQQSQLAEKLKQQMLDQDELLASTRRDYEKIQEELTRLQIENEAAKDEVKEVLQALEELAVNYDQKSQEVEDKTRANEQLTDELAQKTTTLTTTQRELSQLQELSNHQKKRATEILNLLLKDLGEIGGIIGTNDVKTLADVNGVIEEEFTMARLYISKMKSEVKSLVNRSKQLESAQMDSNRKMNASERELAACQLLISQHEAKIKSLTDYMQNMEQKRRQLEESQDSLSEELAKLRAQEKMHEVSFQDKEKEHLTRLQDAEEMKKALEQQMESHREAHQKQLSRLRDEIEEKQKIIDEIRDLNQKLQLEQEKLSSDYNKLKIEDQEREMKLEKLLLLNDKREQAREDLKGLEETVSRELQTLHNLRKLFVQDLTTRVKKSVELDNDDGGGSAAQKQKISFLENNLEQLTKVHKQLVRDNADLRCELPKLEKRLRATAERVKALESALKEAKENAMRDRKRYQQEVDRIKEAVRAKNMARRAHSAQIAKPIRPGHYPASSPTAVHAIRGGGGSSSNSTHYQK
Sequence of full-length human KIF5A, C-terminal mScarlet-StrepII (Q12840 whole entry): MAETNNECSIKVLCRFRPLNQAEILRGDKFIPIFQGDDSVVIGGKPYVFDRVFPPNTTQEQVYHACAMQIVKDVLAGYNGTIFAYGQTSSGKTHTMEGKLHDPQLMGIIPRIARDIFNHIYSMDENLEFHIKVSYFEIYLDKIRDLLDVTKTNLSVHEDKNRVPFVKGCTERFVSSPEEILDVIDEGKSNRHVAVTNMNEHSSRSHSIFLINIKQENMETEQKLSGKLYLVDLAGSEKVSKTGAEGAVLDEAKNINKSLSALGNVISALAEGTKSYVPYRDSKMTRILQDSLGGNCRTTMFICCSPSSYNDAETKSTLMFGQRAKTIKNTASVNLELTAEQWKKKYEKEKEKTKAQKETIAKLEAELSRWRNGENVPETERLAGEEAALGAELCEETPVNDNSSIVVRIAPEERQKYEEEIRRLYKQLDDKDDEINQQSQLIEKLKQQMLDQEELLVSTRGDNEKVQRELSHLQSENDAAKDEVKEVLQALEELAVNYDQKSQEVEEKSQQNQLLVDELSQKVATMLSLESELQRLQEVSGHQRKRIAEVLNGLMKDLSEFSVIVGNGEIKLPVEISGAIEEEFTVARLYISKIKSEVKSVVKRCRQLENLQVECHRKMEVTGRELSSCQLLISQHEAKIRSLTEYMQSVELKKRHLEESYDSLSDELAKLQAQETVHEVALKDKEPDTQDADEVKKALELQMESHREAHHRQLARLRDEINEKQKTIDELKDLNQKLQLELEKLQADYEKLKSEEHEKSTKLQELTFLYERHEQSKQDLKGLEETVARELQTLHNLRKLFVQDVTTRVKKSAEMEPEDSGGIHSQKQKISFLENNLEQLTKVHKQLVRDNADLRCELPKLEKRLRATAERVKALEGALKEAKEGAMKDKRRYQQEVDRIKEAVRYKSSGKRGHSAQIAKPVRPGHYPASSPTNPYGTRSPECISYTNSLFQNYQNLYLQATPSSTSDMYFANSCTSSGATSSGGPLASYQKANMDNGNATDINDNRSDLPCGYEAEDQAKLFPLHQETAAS

In the test the target is taxol-stabilised microtubules of porcine brain tubulin (pig (porcine brain)) (UniProt P02550). Kind of test: single-molecule TIRF microscopy on surface-bound microtubules.
For the substance “full-length human KIF5B, C-terminal mScarlet-StrepII (from UniProt P33176 1-963) (natural protein)”, the landing rate is 0.08 /μm/s/μM.
The figure for “KIF5B-E178A, C-terminal mScarlet-StrepII (from UniProt P33176 1-963) (natural protein)” is 8.1 /μm/s/μM; for “K420A (human KIF5A aa 1-416, C-terminal mScarlet-StrepII) (from UniProt Q12840 1-416) (domain or fragment)” it is 162 /μm/s/μM; for “K420C (human KIF5C aa 1-416, C-terminal mScarlet-StrepII) (from UniProt O60282 1-416) (domain or fragment)” it is 147 /μm/s/μM.
As to “full-length human KIF5C, C-terminal mScarlet-StrepII (from UniProt O60282 1-957) (natural protein)”, the landing rate is 0.1 /μm/s/μM.
For “full-length human KIF5A, C-terminal mScarlet-StrepII (from UniProt Q12840 1-1032) (natural protein)”, the landing rate is 0.69 /μm/s/μM.
For the substance “KIF5A-KLC1 tetramer (from UniProt Q12840;Q07866) (complex)”, the landing rate was 0.1 /μm/s/μM.
The figure for “KIF5B-KLC1 tetramer (from UniProt P33176;Q07866) (complex)” is 0.06 /μm/s/μM.
The figure for “KIF5C-KLC1 tetramer (from UniProt O60282;Q07866) (complex)” is 0.06 /μm/s/μM; for “KIF5B-Δhinge (Δ505-610), C-terminal mScarlet-StrepII (from UniProt P33176 1-963) (natural protein)” it is 3.6 /μm/s/μM; for “KIF5B-H129A, C-terminal mScarlet-StrepII (from UniProt P33176 1-963) (natural protein)” it is 4.4 /μm/s/μM.
The figure for “K420B (human KIF5B aa 1-420, C-terminal mScarlet-StrepII) (from UniProt P33176 1-420) (domain or fragment)” is 146 /μm/s/μM; for “KIF5B-IAK/AAA, C-terminal mScarlet-StrepII (from UniProt P33176 1-963) (natural protein)” it is 4.1 /μm/s/μM.
